We go through 1 substance from patent US20230322893A1, “CD47 BINDER AND LIPOSOME COMPLEX FOR CANCER TREATMENT” (priority 2020, published 2023).

The assay addresses recombinant CD47 protein (Homo sapiens, UniProt Q08722). Nature of the assay: SPR, CD47 conjugated to CM5 chip by EDC-NHS. Conditions: CM5 chip, CD47 250 RU, 30 µL/minutes. In kind it is binding. The method, then: Specifically, the recombinant CD47 protein was conjugated to the surface of the CM5 chip by a target SPR reaction of 250 RU through an EDC-NHS reaction to be used, and for HBS-P, the sensogram obtained through a process of association for 3 minutes and dissociation for 10 minutes at a flow rate of 30 µL/minutes was analyzed with the BiaEvaluation software using a 1:1 binding model and global fitting.

Chain of recombinant CD47 protein (Q08722 19-323): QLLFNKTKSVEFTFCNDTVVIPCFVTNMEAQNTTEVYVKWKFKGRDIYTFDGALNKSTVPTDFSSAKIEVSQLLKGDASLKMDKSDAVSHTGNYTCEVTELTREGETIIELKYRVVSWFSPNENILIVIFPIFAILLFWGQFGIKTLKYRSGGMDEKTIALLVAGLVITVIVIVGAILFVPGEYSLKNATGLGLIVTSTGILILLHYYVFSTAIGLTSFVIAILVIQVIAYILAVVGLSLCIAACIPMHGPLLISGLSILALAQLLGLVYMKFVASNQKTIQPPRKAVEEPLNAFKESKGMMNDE

Regarding “Sirpα: pure Sirpα (SEQ ID NO: 25), water-soluble domain of the original CD47 ligand [reference compound]”, the ka is 610000 M⁻¹ s⁻¹ and the kd was 0.37 s⁻¹.
